Laboratory results as given in the supplement of paper PMC9112550, “Optimization of the antimicrobial peptide Bac7 by deep mutational scanning” (BMC Biology, 2022).

Tested on: Escherichia coli TOP10
Assay: shrunken log2 fold change of peptide-encoding DNA abundance (4.5 h post-induction vs induction); higher = less antimicrobial activity (less host growth inhibition)
Details: time post-induction: 4.5 h; library: site-saturation at positions 5, 18, 19, 20
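Also: peptides expressed intracellularly from a pBAD plasmid library in pooled LB shake-flask culture, induced with 0.3% L-arabinose, DNA abundance read by NGS, three biological replicates, DESeq2 with apeglm shrinkage.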

| Sequence | shrunken log2 fold change |
| --- | --- |
| RRIRLRPPRLPRPRPRPAASPRP | 0.0421 |
| RRIRRRPPRLPRPRPRPLLCPRP | 0.35 |
| RRIRPRPPRLPRPRPRPIWCPRP | 0.0267 |
| RRIRERPPRLPRPRPRPAHGPRP | 0.131 |
| RRIRRRPPRLPRPRPRPVCGPRP | 0.75 |
| RRIRGRPPRLPRPRPRPRKPPRP | 0.399 |
| RRIRKRPPRLPRPRPRPSGIPRP | 0.149 |
| RRIRGRPPRLPRPRPRPTEVPRP | 0.311 |
| RRIRCRPPRLPRPRPRPHMIPRP | -0.0573 |
| RRIRVRPPRLPRPRPRPSEAPRP | 0.0122 |
| RRIRERPPRLPRPRPRPVLQPRP | -0.347 |
| RRIRHRPPRLPRPRPRPRMWPRP | -0.237 |
| RRIRTRPPRLPRPRPRPHNQPRP | -0.369 |
| RRIRIRPPRLPRPRPRPSYVPRP | -1.22 |
| RRIRGRPPRLPRPRPRPKKMPRP | 0.572 |
| RRIRHRPPRLPRPRPRPEQFPRP | 0.000995 |
| RRIRMRPPRLPRPRPRPRTQPRP | 0.97 |
| RRIRWRPPRLPRPRPRPILQPRP | 0.0247 |
| RRIRNRPPRLPRPRPRPNSSPRP | -0.219 |
| RRIRERPPRLPRPRPRPLDDPRP | -0.234 |
| RRIRSRPPRLPRPRPRPYLNPRP | -0.564 |
| RRIRGRPPRLPRPRPRPCMLPRP | 0.336 |
| RRIRGRPPRLPRPRPRPDFHPRP | -0.0976 |
| RRIRLRPPRLPRPRPRPDMKPRP | -0.286 |
| RRIRFRPPRLPRPRPRPNEAPRP | -0.0305 |

| Sequence | shrunken log2 fold change |
| --- | --- |
| RRIRTRPPRLPRPRPRPRQHPRP | -0.374 |
| RRIRQRPPRLPRPRPRPLIMPRP | -0.0338 |
| RRIRRRPPRLPRPRPRPIYRPRP | -0.273 |
| RRIRYRPPRLPRPRPRPGRTPRP | -0.121 |
| RRIRTRPPRLPRPRPRPPIDPRP | -0.231 |
| RRIRGRPPRLPRPRPRPMWHPRP | 0.441 |
| RRIRDRPPRLPRPRPRPILGPRP | -0.0116 |
| RRIRRRPPRLPRPRPRPVLYPRP | -0.142 |
| RRIRDRPPRLPRPRPRPVDAPRP | -0.0229 |
| RRIRLRPPRLPRPRPRPNVPPRP | -0.213 |
| RRIRGRPPRLPRPRPRPVDKPRP | 0.319 |
| RRIRERPPRLPRPRPRPGDQPRP | -0.0675 |
| RRIRWRPPRLPRPRPRPIVFPRP | -0.125 |
| RRIRNRPPRLPRPRPRPEVGPRP | 0.662 |
| RRIRDRPPRLPRPRPRPTTLPRP | 0.525 |
| RRIRSRPPRLPRPRPRPSGPPRP | 0.0577 |
| RRIRPRPPRLPRPRPRPQDYPRP | -0.0245 |
| RRIRCRPPRLPRPRPRPCDDPRP | 0.0119 |
| RRIRPRPPRLPRPRPRPGCIPRP | -0.0111 |
| RRIRSRPPRLPRPRPRPDYLPRP | -0.0749 |
| RRIRARPPRLPRPRPRPCVGPRP | 2.43 |
| RRIRKRPPRLPRPRPRPNRVPRP | -0.00538 |
| RRIRQRPPRLPRPRPRPCAKPRP | 0.0917 |
| RRIRTRPPRLPRPRPRPSCVPRP | -0.185 |
| RRIRTRPPRLPRPRPRPDRGPRP | -0.252 |

| Sequence | shrunken log2 fold change |
| --- | --- |
| RRIRLRPPRLPRPRPRPQDFPRP | 0.0788 |
| RRIRIRPPRLPRPRPRPQKEPRP | -0.0177 |
| RRIRGRPPRLPRPRPRPICCPRP | 0.8 |
| RRIRPRPPRLPRPRPRPHIIPRP | -0.19 |
| RRIRYRPPRLPRPRPRPIGLPRP | -0.0167 |
| RRIRFRPPRLPRPRPRPWTMPRP | 0.0794 |
| RRIRIRPPRLPRPRPRPYSDPRP | -0.186 |
| RRIRPRPPRLPRPRPRPMACPRP | -0.161 |
| RRIRDRPPRLPRPRPRPVICPRP | 0.0219 |
| RRIRWRPPRLPRPRPRPSPGPRP | -0.0366 |
| RRIRQRPPRLPRPRPRPCGHPRP | 0.0101 |
| RRIRPRPPRLPRPRPRPQYLPRP | -0.769 |
| RRIRTRPPRLPRPRPRPLQPPRP | 0.161 |
| RRIRIRPPRLPRPRPRPWLVPRP | -0.038 |
| RRIRYRPPRLPRPRPRPPYSPRP | -0.45 |
| RRIRPRPPRLPRPRPRPPNRPRP | 0.29 |
| RRIRMRPPRLPRPRPRPNCFPRP | 0.153 |
| RRIRSRPPRLPRPRPRPAYKPRP | -0.136 |
| RRIRSRPPRLPRPRPRPGAHPRP | 0.0286 |
| RRIRRRPPRLPRPRPRPHVNPRP | -0.0608 |
| RRIRVRPPRLPRPRPRPIALPRP | -0.238 |
| RRIRFRPPRLPRPRPRPEFGPRP | 0.0197 |
| RRIRTRPPRLPRPRPRPGKKPRP | -0.0783 |
| RRIRWRPPRLPRPRPRPMWRPRP | 0.328 |
| RRIRGRPPRLPRPRPRPHEQPRP | 0.0117 |

| Sequence | shrunken log2 fold change |
| --- | --- |
| RRIRHRPPRLPRPRPRPDTYPRP | -0.24 |
| RRIRKRPPRLPRPRPRPKMTPRP | 0.187 |
| RRIRRRPPRLPRPRPRPIRVPRP | 0.244 |
| RRIRPRPPRLPRPRPRPNQDPRP | -0.167 |
| RRIRARPPRLPRPRPRPSEWPRP | 0.0632 |
| RRIRGRPPRLPRPRPRPTSWPRP | 0.782 |
| RRIRVRPPRLPRPRPRPKQGPRP | 0.0222 |
| RRIRSRPPRLPRPRPRPHCWPRP | -0.0424 |
| RRIRFRPPRLPRPRPRPSNRPRP | -0.381 |
| RRIRKRPPRLPRPRPRPEFWPRP | 0.807 |
| RRIRPRPPRLPRPRPRPAYKPRP | -0.302 |
| RRIRERPPRLPRPRPRPHIKPRP | -0.932 |
| RRIRDRPPRLPRPRPRPMRKPRP | 0.763 |
| RRIRIRPPRLPRPRPRPPPLPRP | 0.302 |
| RRIRGRPPRLPRPRPRPVAFPRP | 0.722 |
| RRIRRRPPRLPRPRPRPQGQPRP | -0.0135 |
| RRIRARPPRLPRPRPRPTTMPRP | 0.156 |
| RRIRKRPPRLPRPRPRPQVEPRP | 0.248 |
| RRIRMRPPRLPRPRPRPTWPPRP | 0.837 |
| RRIRSRPPRLPRPRPRPWTFPRP | -0.199 |
| RRIRDRPPRLPRPRPRPTRCPRP | 1.35 |
| RRIRERPPRLPRPRPRPEGQPRP | -0.015 |
| RRIRHRPPRLPRPRPRPPEEPRP | 0.791 |
| RRIRKRPPRLPRPRPRPWDDPRP | 0.0248 |
| RRIRVRPPRLPRPRPRPEFVPRP | -0.262 |

| Sequence | shrunken log2 fold change |
| --- | --- |
| RRIRGRPPRLPRPRPRPYMKPRP | -0.493 |
| RRIRWRPPRLPRPRPRPQMYPRP | -0.168 |
| RRIRERPPRLPRPRPRPYVFPRP | -0.575 |
| RRIRNRPPRLPRPRPRPDMKPRP | -0.423 |
| RRIRNRPPRLPRPRPRPCVRPRP | -0.109 |
| RRIRPRPPRLPRPRPRPYYPPRP | -0.439 |
| RRIRKRPPRLPRPRPRPEVCPRP | 0.0227 |
| RRIRCRPPRLPRPRPRPVYDPRP | -0.683 |
| RRIRSRPPRLPRPRPRPERIPRP | -0.065 |
| RRIRTRPPRLPRPRPRPHRLPRP | -0.387 |
| RRIRDRPPRLPRPRPRPRGWPRP | 1.35 |
| RRIRRRPPRLPRPRPRPYNFPRP | -0.642 |
| RRIRYRPPRLPRPRPRPLGCPRP | -0.198 |
| RRIRSRPPRLPRPRPRPHIQPRP | -0.699 |
| RRIRVRPPRLPRPRPRPMCKPRP | -0.508 |
| RRIRERPPRLPRPRPRPRQGPRP | 0.235 |
| RRIRERPPRLPRPRPRPPYRPRP | 0.0947 |
| RRIRRRPPRLPRPRPRPVMIPRP | 0.224 |
| RRIRFRPPRLPRPRPRPITDPRP | 0.0437 |
| RRIRARPPRLPRPRPRPMLAPRP | 0.881 |
| RRIRHRPPRLPRPRPRPECFPRP | -0.0176 |
| RRIRYRPPRLPRPRPRPRYIPRP | -0.397 |
| RRIRHRPPRLPRPRPRPHSSPRP | -0.0394 |
| RRIRIRPPRLPRPRPRPFQIPRP | 0.0698 |
| RRIRCRPPRLPRPRPRPDGPPRP | 0.185 |
